The text below walks through data of US20220177531A1 (NEW YORK UNIVERSITY, published 2022).

The target in one assay is T1, KRAS(G12D), GDP-bound (Meleagris gallopavo (Wild turkey), UniProt P79800 1-174, GDP bound non-covalently; biotin on the N-terminal Avi-tag, and the tag is not in the letters).
T1 construct: Same protein as m17, loaded with GDP
Nature of the assay: yeast display titration, flow cytometry. For orientation: Flow cytometry measures light scatter and fluorescence of single cells or particles in a stream.

Another assay deals with T2, KRAS(G13D), GTPγS-bound (Meleagris gallopavo (Wild turkey), UniProt P79800 1-174, GTPγS bound non-covalently; biotin on the N-terminal Avi-tag, and the tag is not in the letters).
T2 construct: Loaded with GTPγS; tagged and biotinylated in the yeast-display assay
Description: yeast display titration, flow cytometry.

A further assay addresses T3, KRAS(G13D), GDP-bound (Meleagris gallopavo (Wild turkey), UniProt P79800 1-174, GDP bound non-covalently; biotin on the N-terminal Avi-tag, and the tag is not in the letters).
T3 construct: Same protein as m19, loaded with GDP
Nature of the assay: yeast display titration, flow cytometry.

For the next assay, the target named is T4, KRAS(G12D), GTPγS-bound (Meleagris gallopavo (Wild turkey), UniProt P79800 1-174, GTPγS bound non-covalently; biotin on the N-terminal Avi-tag, and the tag is not in the letters).
T4 construct: Loaded with GTPγS; tagged and biotinylated in the yeast-display assay
Description: yeast display titration, flow cytometry.

Assay [1] concerns the target KRAS(G12V) in cells (endogenous in PATU8902 and H441) (UniProt P01116-2 1-185, limits assumed).

B1: Monobody 12VC1 (designed binder)
chain: VSSVPTKLEVVAATPTSLLISWDAPAVTVFFYVITYGETGHGVGAFQAFKVPGSKSTATISGLKPGVDYTITVYARGYSKQGPYKPSPISINYRT
On to B1, for which the binding result is “no binding (tested: 100 nM)” with KRAS(G12D), GDP-bound; “no binding (tested: 100 nM)” with KRAS(G13D), GTPγS-bound; “no binding (tested: 100 nM)” in the assay with KRAS(G13D), GDP-bound; “no binding (tested: 100 nM)” with KRAS(G12D), GTPγS-bound. This molecule showed a FoldChange in assay [1] of 1360.
